Assay results published in the supplement of paper PMC9876800.

System: peptide library, one residue held at a place counted from the S/T acceptor
Assay: relative phosphorylation of the sub-library (ratio to the mean residue at this position); human; higher = residue favoured
Procedure, shortened: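 Relative sub-library phosphorylation, a ratio to the mean residue at that position, was obtained by phosphorimaging and densitometry of spots on streptavidin membranes. Before capture, purified recombinant kinases were incubated for 90 min under kinase-specific conditions with 50 μM biotinylated degenerate peptide sub-libraries and 50 μM ATP spiked with γ-32P-ATP. Each sub-library fixed one residue at one position around a central Ser/Thr.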

Sequence of BRSK2, construct: Full length (Q8IWQ3 whole entry, looked up): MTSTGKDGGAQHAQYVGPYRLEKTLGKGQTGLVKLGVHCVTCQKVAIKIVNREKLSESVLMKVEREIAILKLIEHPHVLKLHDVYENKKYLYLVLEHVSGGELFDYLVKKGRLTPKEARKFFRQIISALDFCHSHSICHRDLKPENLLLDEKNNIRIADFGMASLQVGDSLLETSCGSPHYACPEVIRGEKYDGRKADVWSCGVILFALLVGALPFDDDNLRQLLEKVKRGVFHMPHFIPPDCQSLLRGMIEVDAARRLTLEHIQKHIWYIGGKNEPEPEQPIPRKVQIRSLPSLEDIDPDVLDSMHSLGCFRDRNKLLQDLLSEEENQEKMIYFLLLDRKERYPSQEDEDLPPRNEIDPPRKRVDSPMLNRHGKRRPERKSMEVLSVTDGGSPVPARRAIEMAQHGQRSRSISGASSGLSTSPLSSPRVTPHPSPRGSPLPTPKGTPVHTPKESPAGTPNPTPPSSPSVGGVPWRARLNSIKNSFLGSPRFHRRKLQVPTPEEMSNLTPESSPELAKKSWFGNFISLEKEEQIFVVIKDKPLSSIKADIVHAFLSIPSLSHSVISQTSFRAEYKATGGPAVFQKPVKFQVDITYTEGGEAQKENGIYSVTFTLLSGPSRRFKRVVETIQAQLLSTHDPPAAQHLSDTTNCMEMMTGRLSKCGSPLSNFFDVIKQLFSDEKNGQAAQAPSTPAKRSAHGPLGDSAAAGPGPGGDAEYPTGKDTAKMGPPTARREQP

Substance “BRSK2, construct: Full length (from UniProt Q8IWQ3)” has a relative phosphorylation (A fixed, at +1) of 0.653, a relative phosphorylation (A fixed, at +2) of 0.569 and a relative phosphorylation (A fixed, at +3) of 0.726. For the same substance, the relative phosphorylation (A fixed, at +4) was 0.598, the relative phosphorylation (A fixed, at -1) was 1.07 and the relative phosphorylation (A fixed, at -2) was 1.91. It also gave a relative phosphorylation (A fixed, at -3) of 0.829, a relative phosphorylation (A fixed, at -4) of 1.14 and a relative phosphorylation (A fixed, at -5) of 1.01. For the same substance, the relative phosphorylation (D fixed, at +1) was 0.341, the relative phosphorylation (D fixed, at +2) was 0.505 and the relative phosphorylation (D fixed, at +3) was 1.34. The relative phosphorylation (D fixed, at +4) was 0.41, the relative phosphorylation (D fixed, at -1) was 0.539 and the relative phosphorylation (D fixed, at -2) was 0.816. For the same substance, the relative phosphorylation (D fixed, at -3) was 0.264, the relative phosphorylation (D fixed, at -4) was 0.367 and the relative phosphorylation (D fixed, at -5) was 0.357. The relative phosphorylation (E fixed, at +1) was 0.396, the relative phosphorylation (E fixed, at +2) was 0.471 and the relative phosphorylation (E fixed, at +3) was 0.574. For the same substance, the relative phosphorylation (E fixed, at +4) was 0.299, the relative phosphorylation (E fixed, at -1) was 0.433 and the relative phosphorylation (E fixed, at -2) was 0.659. For the same substance, the relative phosphorylation (E fixed, at -3) was 0.257, the relative phosphorylation (E fixed, at -4) was 0.435 and the relative phosphorylation (E fixed, at -5) was 0.355. It also gave a relative phosphorylation (F fixed, at +1) of 2.02, a relative phosphorylation (F fixed, at +2) of 1.69 and a relative phosphorylation (F fixed, at +3) of 1.95. For the same substance, the relative phosphorylation (F fixed, at +4) was 1.3, the relative phosphorylation (F fixed, at -1) was 0.867 and the relative phosphorylation (F fixed, at -2) was 1.19. It also gave a relative phosphorylation (F fixed, at -3) of 0.728, a relative phosphorylation (F fixed, at -4) of 0.686 and a relative phosphorylation (F fixed, at -5) of 1.2. The relative phosphorylation (G fixed, at +1) was 0.53, the relative phosphorylation (G fixed, at +2) was 0.464 and the relative phosphorylation (G fixed, at +3) was 0.85. The relative phosphorylation (G fixed, at +4) was 0.562, the relative phosphorylation (G fixed, at -1) was 1.3 and the relative phosphorylation (G fixed, at -2) was 1.35. For the same substance, the relative phosphorylation (G fixed, at -3) was 0.703, the relative phosphorylation (G fixed, at -4) was 1.16 and the relative phosphorylation (G fixed, at -5) was 0.964. For the same substance, the relative phosphorylation (H fixed, at +1) was 0.802, the relative phosphorylation (H fixed, at +2) was 1.49 and the relative phosphorylation (H fixed, at +3) was 1.25. It also gave a relative phosphorylation (H fixed, at +4) of 0.718, a relative phosphorylation (H fixed, at -1) of 1.18 and a relative phosphorylation (H fixed, at -2) of 1.05. It also gave a relative phosphorylation (H fixed, at -3) of 1.31, a relative phosphorylation (H fixed, at -4) of 1.3 and a relative phosphorylation (H fixed, at -5) of 0.842. The relative phosphorylation (I fixed, at +1) was 1.03, the relative phosphorylation (I fixed, at +2) was 0.679 and the relative phosphorylation (I fixed, at +3) was 0.518. For the same substance, the relative phosphorylation (I fixed, at +4) was 3.23, the relative phosphorylation (I fixed, at -1) was 0.674 and the relative phosphorylation (I fixed, at -2) was 0.591. The relative phosphorylation (I fixed, at -3) was 0.389, the relative phosphorylation (I fixed, at -4) was 0.522 and the relative phosphorylation (I fixed, at -5) was 1.08. It also gave a relative phosphorylation (K fixed, at +1) of 0.624, a relative phosphorylation (K fixed, at +2) of 0.337 and a relative phosphorylation (K fixed, at +3) of 0.775. For the same substance, the relative phosphorylation (K fixed, at +4) was 0.727, the relative phosphorylation (K fixed, at -1) was 1.53 and the relative phosphorylation (K fixed, at -2) was 1.04. For the same substance, the relative phosphorylation (K fixed, at -3) was 2.71, the relative phosphorylation (K fixed, at -4) was 2.04 and the relative phosphorylation (K fixed, at -5) was 1.35. The relative phosphorylation (L fixed, at +1) was 1.17, the relative phosphorylation (L fixed, at +2) was 0.739 and the relative phosphorylation (L fixed, at +3) was 0.609. It also gave a relative phosphorylation (L fixed, at +4) of 3.06, a relative phosphorylation (L fixed, at -1) of 0.956 and a relative phosphorylation (L fixed, at -2) of 0.564. It also gave a relative phosphorylation (L fixed, at -3) of 0.427, a relative phosphorylation (L fixed, at -4) of 0.58 and a relative phosphorylation (L fixed, at -5) of 1.27. For the same substance, the relative phosphorylation (M fixed, at +1) was 3.01, the relative phosphorylation (M fixed, at +2) was 0.951 and the relative phosphorylation (M fixed, at +3) was 0.675. It also gave a relative phosphorylation (M fixed, at +4) of 1.47, a relative phosphorylation (M fixed, at -1) of 1.14 and a relative phosphorylation (M fixed, at -2) of 0.664. The relative phosphorylation (M fixed, at -3) was 0.589, the relative phosphorylation (M fixed, at -4) was 0.881 and the relative phosphorylation (M fixed, at -5) was 1.33. For the same substance, the relative phosphorylation (N fixed, at +1) was 0.925, the relative phosphorylation (N fixed, at +2) was 1.03 and the relative phosphorylation (N fixed, at +3) was 2.68. It also gave a relative phosphorylation (N fixed, at +4) of 0.671, a relative phosphorylation (N fixed, at -1) of 1.02 and a relative phosphorylation (N fixed, at -2) of 0.843. The relative phosphorylation (N fixed, at -3) was 0.681, the relative phosphorylation (N fixed, at -4) was 0.752 and the relative phosphorylation (N fixed, at -5) was 0.599. The relative phosphorylation (P fixed, at +1) was 0.203, the relative phosphorylation (P fixed, at +2) was 0.489 and the relative phosphorylation (P fixed, at +3) was 0.403. For the same substance, the relative phosphorylation (P fixed, at +4) was 0.654, the relative phosphorylation (P fixed, at -1) was 1.55 and the relative phosphorylation (P fixed, at -2) was 0.833. For the same substance, the relative phosphorylation (P fixed, at -3) was 0.687, the relative phosphorylation (P fixed, at -4) was 1.58 and the relative phosphorylation (P fixed, at -5) was 0.954. For the same substance, the relative phosphorylation (Q fixed, at +1) was 1.19, the relative phosphorylation (Q fixed, at +2) was 1.01 and the relative phosphorylation (Q fixed, at +3) was 1.07. It also gave a relative phosphorylation (Q fixed, at +4) of 0.661, a relative phosphorylation (Q fixed, at -1) of 1.12 and a relative phosphorylation (Q fixed, at -2) of 0.701. It also gave a relative phosphorylation (Q fixed, at -3) of 0.861, a relative phosphorylation (Q fixed, at -4) of 0.913 and a relative phosphorylation (Q fixed, at -5) of 0.817. It also gave a relative phosphorylation (R fixed, at +1) of 1.07, a relative phosphorylation (R fixed, at +2) of 0.416 and a relative phosphorylation (R fixed, at +3) of 0.916. The relative phosphorylation (R fixed, at +4) was 0.599, the relative phosphorylation (R fixed, at -1) was 1.2 and the relative phosphorylation (R fixed, at -2) was 1.35. The relative phosphorylation (R fixed, at -3) was 4.56, the relative phosphorylation (R fixed, at -4) was 2.14 and the relative phosphorylation (R fixed, at -5) was 1.71. It also gave a relative phosphorylation (V fixed, at +1) of 0.914, a relative phosphorylation (V fixed, at +2) of 0.567 and a relative phosphorylation (V fixed, at +3) of 0.499. The relative phosphorylation (V fixed, at +4) was 0.876, the relative phosphorylation (V fixed, at -1) was 0.781 and the relative phosphorylation (V fixed, at -2) was 0.978. The relative phosphorylation (V fixed, at -3) was 0.405, the relative phosphorylation (V fixed, at -4) was 0.678 and the relative phosphorylation (V fixed, at -5) was 0.801. For the same substance, the relative phosphorylation (W fixed, at +1) was 0.924, the relative phosphorylation (W fixed, at +2) was 1.98 and the relative phosphorylation (W fixed, at +3) was 1.09. For the same substance, the relative phosphorylation (W fixed, at +4) was 0.607, the relative phosphorylation (W fixed, at -1) was 0.642 and the relative phosphorylation (W fixed, at -2) was 1.34. The relative phosphorylation (W fixed, at -3) was 0.886, the relative phosphorylation (W fixed, at -4) was 0.976 and the relative phosphorylation (W fixed, at -5) was 1.12. The relative phosphorylation (Y fixed, at +1) was 1.2, the relative phosphorylation (Y fixed, at +2) was 3.62 and the relative phosphorylation (Y fixed, at +3) was 1.08. For the same substance, the relative phosphorylation (Y fixed, at +4) was 0.559, the relative phosphorylation (Y fixed, at -1) was 1.01 and the relative phosphorylation (Y fixed, at -2) was 1.13. For the same substance, the relative phosphorylation (Y fixed, at -3) was 0.711, the relative phosphorylation (Y fixed, at -4) was 0.844 and the relative phosphorylation (Y fixed, at -5) was 1.24. For the same substance, the relative phosphorylation (pThr fixed, at +1) was 0.909, the relative phosphorylation (pThr fixed, at +2) was 0.54 and the relative phosphorylation (pThr fixed, at +3) was 0.378. The relative phosphorylation (pThr fixed, at +4) was 0.452, the relative phosphorylation (pThr fixed, at -1) was 0.332 and the relative phosphorylation (pThr fixed, at -2) was 0.451. It also gave a relative phosphorylation (pThr fixed, at -3) of 0.401, a relative phosphorylation (pThr fixed, at -4) of 0.624 and a relative phosphorylation (pThr fixed, at -5) of 0.6. The relative phosphorylation (pTyr fixed, at +1) was 0.419, the relative phosphorylation (pTyr fixed, at +2) was 0.504 and the relative phosphorylation (pTyr fixed, at +3) was 0.571. For the same substance, the relative phosphorylation (pTyr fixed, at +4) was 0.287, the relative phosphorylation (pTyr fixed, at -1) was 0.899 and the relative phosphorylation (pTyr fixed, at -2) was 0.366. The relative phosphorylation (pTyr fixed, at -3) was 0.376, the relative phosphorylation (pTyr fixed, at -4) was 0.533 and the relative phosphorylation (pTyr fixed, at -5) was 0.594.
